Assay results published in patent US20220298235A1 (AKESO BIOPHARMA, published 2022).

Key:
human p40-His = target: T1, human p40-His (human, UniProt P29460 23-328); test: indirect ELISA, p40-His coat 0.125 µg/mL
T1 construct: Made by Akeso Biopharma; construct limits and tag not described; also called human IL-12/IL-23 p40 protein domain; human IL-12/IL-23 p40; not shown: His tag
T1 sequence (looked up): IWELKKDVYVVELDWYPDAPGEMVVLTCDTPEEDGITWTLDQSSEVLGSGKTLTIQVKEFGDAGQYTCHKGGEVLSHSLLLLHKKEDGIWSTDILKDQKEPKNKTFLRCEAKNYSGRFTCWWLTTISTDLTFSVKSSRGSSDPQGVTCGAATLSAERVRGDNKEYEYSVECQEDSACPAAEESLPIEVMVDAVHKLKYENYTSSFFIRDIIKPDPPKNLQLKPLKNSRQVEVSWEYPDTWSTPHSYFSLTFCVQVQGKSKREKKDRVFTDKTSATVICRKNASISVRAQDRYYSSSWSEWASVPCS
Procedure: A microplate was coated with human p40-His (Akeso Biopharma, Inc.; gene of p40: GeneBank NM002187). After incubation at 4° C. for no less than 12 h, the plate was washed with PBST, patted dry and blocked with a solution of 1% BSA in PBS. After blocking was completed, the plate was washed with PBST and patted dry. The antibody diluted with PBST solution in gradient was added into the wells of the plate, and the antibody dilution gradient is detailed in Table 1. The plate containing the test antibody was incubated at 37° C. for 30 min and then washed with PBST and patted dry. […] TMB (Neogen, 308177) was added for color developing for 5 min in the absence of light, and then stop solution was added to terminate the chromogenic reaction. Then the plate was put into a plate reader immediately, and the OD value of each well in the plate was read at 450 nm. The data were analyzed by SoftMax Pro 6.2.1.
The binding EC₅₀ of antibody was calculated by curve fitting using antibody concentration as the abscissa and absorbance value as the ordinate, and the results are shown in Table 2 below.

Human IL12 (His Tag) = target: T2, Human IL12 (His Tag) (human, UniProt P29459 23-219; P29460 23-328); test: FACS competition, IL12-His (40 nM mixed 1:1) on 293T-IL-12Rβ1&IL-23R cells
T2 construct: Bought His-tagged heterodimer
T2 sequence (looked up) 1: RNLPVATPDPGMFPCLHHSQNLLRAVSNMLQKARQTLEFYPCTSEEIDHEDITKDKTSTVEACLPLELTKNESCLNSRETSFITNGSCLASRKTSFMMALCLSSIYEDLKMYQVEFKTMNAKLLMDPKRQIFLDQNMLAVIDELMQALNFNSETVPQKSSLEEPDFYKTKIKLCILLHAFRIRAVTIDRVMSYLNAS
T2 sequence (looked up) 2: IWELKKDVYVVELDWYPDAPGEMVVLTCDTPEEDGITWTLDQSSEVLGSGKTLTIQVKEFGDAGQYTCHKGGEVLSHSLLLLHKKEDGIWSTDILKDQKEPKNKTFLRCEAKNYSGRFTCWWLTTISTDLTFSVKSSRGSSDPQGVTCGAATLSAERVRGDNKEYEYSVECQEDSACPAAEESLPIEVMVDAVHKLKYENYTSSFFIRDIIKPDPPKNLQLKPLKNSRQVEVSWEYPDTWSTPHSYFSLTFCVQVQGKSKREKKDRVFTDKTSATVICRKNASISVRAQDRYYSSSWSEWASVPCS
Procedure: 200 μL of 1% PBSA was added into each sample, and the mixture was centrifuged at 1200 rpm for 5 min to discard the supernatant. According to experiment design, correspondingly diluted antibody (highest final concentration of 60 μg/mL, 3-fold dilution, 8 concentrations in total) and IL12-His (Sino Biological, Cat. No.: CT-050-H08H-20) (40 nM) were mixed at a ratio of 1:1, and a blank control was set. The mixture of antibody and IL12 was incubated on ice for 30 min and then added to the cell precipitate at 100 μL/sample. The resulting mixture was well mixed and incubated on ice for 60 min 200 μL of 1% PBSA was added, and the mixture was centrifuged at 1200 rpm for 5 min to discard the supernatant, and then washed twice. THETM His tag antibody (FITC) (Genscript, Cat. No.: A01620) was diluted at a ratio of 1:500 and added to each tube at 100 μL. The mixture was well mixed and incubated on ice for 40 min in the absence of light. 200 μL of 1% PBSA was added, and the mixture was centrifuged at 1200 rpm for 5 min to discard the supernatant, and then washed twice. 1% PBSA was added at 200 μL/tube, and the cells were resuspended and transferred to a flow cytometry tube for testing.

[1] = target: T3, human IL-23 (IL-23-His-Biotin) (human, UniProt Q9NPF7 20-189; P29460 23-328, biotin label, site not stated); test: FACS competition, IL23-His-Biotin (4 µg/mL mixed 1:1) on 293T-IL-12Rβ1&IL-23R cells
T3 construct: Akesobio lot 20161209; His-tagged and biotinylated
T3 sequence (looked up) 1: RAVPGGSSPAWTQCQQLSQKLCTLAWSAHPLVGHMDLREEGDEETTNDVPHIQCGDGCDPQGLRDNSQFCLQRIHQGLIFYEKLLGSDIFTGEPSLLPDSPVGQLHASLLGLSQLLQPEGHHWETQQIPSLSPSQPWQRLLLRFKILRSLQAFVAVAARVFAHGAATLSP
T3 sequence (looked up) 2: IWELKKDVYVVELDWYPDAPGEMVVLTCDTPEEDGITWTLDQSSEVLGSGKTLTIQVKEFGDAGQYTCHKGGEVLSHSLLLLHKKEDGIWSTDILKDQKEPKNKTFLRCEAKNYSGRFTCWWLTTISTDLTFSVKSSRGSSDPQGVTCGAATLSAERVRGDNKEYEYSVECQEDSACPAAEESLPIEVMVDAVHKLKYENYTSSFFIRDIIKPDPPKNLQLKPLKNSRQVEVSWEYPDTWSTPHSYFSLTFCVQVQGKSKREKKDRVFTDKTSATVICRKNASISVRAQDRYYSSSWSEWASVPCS
Procedure: 200 μL of 1% PBSA was added into each sample, and the mixture was centrifuged at 1200 rpm for 5 min to discard the supernatant. According to experiment design, correspondingly diluted antibody (highest concentration of 60 μg/mL, 3-fold dilution, 8 concentrations in total) and human IL23-His-Biotin (Akeso Biopharma, Inc., Lot. No.: 20161209) (4 μg/mL) were mixed at a ratio of 1:1, and a blank control was set. The mixture of antibody and IL23-His-Biotin was incubated on ice for 30 min and then added to the cell precipitate at 100 μL/sample. The resulting mixture was well mixed and incubated on ice for 60 min. 200 μL of 1% PBSA was added, and the mixture was centrifuged at 1200 rpm for 5 min to discard the supernatant, and then washed twice. FITC Steptavidin (Biolegend, Cat. No.: 405202) was diluted at a ratio of 1:500 and added to each tube at 100 μL. The mixture was well mixed and incubated on ice for 40 min in the absence of light. 200 μL of 1% PBSA was added, and the mixture was centrifuged at 1200 rpm for 5 min to discard the supernatant, and then washed twice. 1% PBSA was added at 200 μL/tube, and the cells were resuspended and transferred to a flow cytometry tube for testing.

| Binder | EC50 (human p40-His) [nM] | EC50 (Human IL12 (His Tag)) [µg/mL] | EC50 [1] [µg/mL] |
| --- | --- | --- | --- |
| H5L10 (antibody, human IgG1, kappa, V domains shown, human IgG1 / kappa constant regions; also called humanized antibody H5L10) VH: EVQLVQSGAEVKKPGESLKISCQSSGYSFTTYWIGWVRQMPGQGLEWIGIMSPVDSDIRYNPMFRGQVTMSVDKSSSTAYLQWSSLKASDTAMYYCARRRPGQGYFDFWGQGTMVTVSS VL: EIVLTQSPATLSASPGERATISCRASQSVGSWLAWYQQKPGQAPRSLIYAASNLQSGIPARFSGSGSGTDFTLTISSLEPEDFAVYYCQQYNIYPYTFGQGTRLEIKR | 0.057 | – | – |
| ustekinumab (antibody, V domains shown) VH: EVQLVQSGAEVKKPGESLKISCKGSGYSFTTYWLGWVRQMPGKGLDWIGIMSPVDSDIRYSPSFQGQVTMSVDKSITTAYLQWNSLKASDTAMYYCARRRPGQGYFDFWGQGTLVTVSS VL: DIQMTQSPSSLSASVGDRVTITCRASQGISSWLAWYQQKPEKAPKSLIYAASSLQSGVPSRFSGSGSGTDFTLTISSLQPEDFATYYCQQYNIYPYTFGQGTKLEIK | – | 1.58 | 1.43 |
